# From patent US20100183625A1, “Treatment of Mucositis with Kallikrein Inhibitors” (Dyax Corp., priority 2009, published 2010)
# Like-named read-outs stand apart in the source and are kept apart here.
# How the values were obtained:
# [1] = target: T1, human plasma kallikrein (human pKal) (Homo sapiens, UniProt P03952); assay: Ki,app against human pKal by steady state enzyme kinetics (in vitro protease cleavage assay, Pro-Phe-Arg-aminomethylcoumarin substrate); assay type: biochemical
# T1 construct: two disulfide linked polypeptides; a heavy chain of approximately 52 kDa and a catalytic domain of approximately 34 kDa; host or cells: human plasma
# T1 sequence (P03952 391-638 limits assumed): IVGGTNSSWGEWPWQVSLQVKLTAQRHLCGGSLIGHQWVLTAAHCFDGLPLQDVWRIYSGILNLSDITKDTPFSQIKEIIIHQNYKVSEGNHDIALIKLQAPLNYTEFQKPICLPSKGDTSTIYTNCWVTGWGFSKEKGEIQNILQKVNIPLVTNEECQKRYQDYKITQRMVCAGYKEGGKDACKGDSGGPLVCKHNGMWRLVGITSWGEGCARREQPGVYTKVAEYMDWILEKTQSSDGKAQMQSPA
# T1 sequence (P03952 20-390 partner limits assumed): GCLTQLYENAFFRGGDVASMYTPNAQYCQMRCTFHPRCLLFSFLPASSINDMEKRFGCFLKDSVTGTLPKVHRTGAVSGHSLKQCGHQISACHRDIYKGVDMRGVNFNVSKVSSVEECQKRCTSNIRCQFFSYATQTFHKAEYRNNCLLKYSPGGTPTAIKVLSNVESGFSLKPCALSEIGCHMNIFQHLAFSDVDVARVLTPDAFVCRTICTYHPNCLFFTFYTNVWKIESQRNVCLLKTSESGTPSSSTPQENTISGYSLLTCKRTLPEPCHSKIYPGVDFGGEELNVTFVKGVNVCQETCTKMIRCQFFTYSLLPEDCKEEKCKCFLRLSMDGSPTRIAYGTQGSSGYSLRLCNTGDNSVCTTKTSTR
# Text: The inhibition constant (Ki) provides a measure of inhibitor potency; it is the concentration of inhibitor required to reduce enzyme activity by half and is not dependent on enzyme or substrate concentrations. The apparent Ki (Ki,app) is obtained at different substrate concentrations by measuring the inhibitory effect of different concentrations of inhibitor (e.g., inhibitory binding protein) on the extent of the reaction (e.g., enzyme activity); fitting the change in pseudo-first order rate constant as a function of inhibitor concentration to the Morrison equation (Equation 1) yields an estimate of the apparent Ki value. The Ki is obtained from the y-intercept extracted from a linear regression analysis of a plot of Ki,app versus substrate concentration.
# Where v=measured velocity; v0=velocity in the absence of inhibitor; Ki,app=apparent inhibition constant; I=total inhibitor concentration; and E=total enzyme concentration.
# The sequence of human plasma kallikrein that was used in selections and subsequent screening of binding proteins is shown below (accession number NP_000883.2). The human plasma kallikrein (86 kDa) that was used was purified from human plasma and activated with factor XIIa by a commercial vendor. Factor XIIa activates prekallikrein by cleaving the polypeptide sequence at a single site (between Arg371-Ile372, cleavage site marked by “/” in the sequence below) to generate active plasma kallikrein, which then consists of two disulfide linked polypeptides; a heavy chain of approximately 52 kDa and a catalytic domain of approximately 34 kDa [Colman and Schmaier, (1997) “Contact System: A Vascular Biology Modulator With Anticoagulant, Profibrinolytic, Antiadhesive, and Proinflammatory Attributes” Blood, 90, 3819-3843]
# These antibodies were produced as Fab fragments in small scale (˜20 μg) and tested for inhibition against human pKal in an in vitro protease cleavage assay using Pro-Phe-Arg-aminomethylcoumarin as the synthetic peptide substrate. […] Five antibodies were then expressed in 293T cells and purified by protein A sepharose chromatography. The antibodies were analyzed by SDS-PAGE to determine which of the inhibitory mutants are not cleaved by the host cell protease(s) (data not shown).
# [2] = target: T2, biotinylated plasma kallikrein (human pKal) (Homo sapiens, UniProt P03952); assay: Human pKal ELISA (T/B); assay type: binding; details: ELISA signal of target (biotinylated plasma kallikrein) divided by signal of background (streptavidin); Table 6
# T2 construct: two disulfide linked polypeptides; a heavy chain of approximately 52 kDa and a catalytic domain of approximately 34 kDa; host or cells: human plasma
# T2 sequence (P03952 391-638 limits assumed): as the sequence (P03952 391-638 limits assumed) above
# T2 sequence (P03952 20-390 partner limits assumed): as the sequence (P03952 20-390 partner limits assumed) above
# mouse pKal = target: T3, mouse pKal (Mus musculus, UniProt P26262); assay: Ki,app against mouse pKal; assay type: biochemical
# T3 construct: active plasma kallikrein (pkal) has the single polypeptide chain cleaved at a single position
# T3 sequence (P26262 391-638 limits assumed): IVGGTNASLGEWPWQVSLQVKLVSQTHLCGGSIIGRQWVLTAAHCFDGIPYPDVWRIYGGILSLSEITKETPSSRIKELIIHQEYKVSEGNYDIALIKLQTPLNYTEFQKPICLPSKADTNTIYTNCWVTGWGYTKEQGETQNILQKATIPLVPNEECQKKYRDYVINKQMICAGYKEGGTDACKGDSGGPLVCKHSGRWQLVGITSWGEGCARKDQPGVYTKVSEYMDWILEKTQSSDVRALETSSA
# T3 sequence (P26262 20-390 partner limits assumed): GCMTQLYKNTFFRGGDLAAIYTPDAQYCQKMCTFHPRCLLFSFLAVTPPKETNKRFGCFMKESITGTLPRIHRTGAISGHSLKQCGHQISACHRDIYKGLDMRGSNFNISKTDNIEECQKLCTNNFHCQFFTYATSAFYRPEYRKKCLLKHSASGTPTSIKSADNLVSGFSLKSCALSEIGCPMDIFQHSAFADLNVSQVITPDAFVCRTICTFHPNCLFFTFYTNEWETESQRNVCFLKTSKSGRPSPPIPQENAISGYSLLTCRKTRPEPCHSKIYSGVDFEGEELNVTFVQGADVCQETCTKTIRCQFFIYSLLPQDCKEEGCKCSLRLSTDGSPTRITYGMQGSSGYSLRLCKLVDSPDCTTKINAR
# Protocol: (§1) Fourth, antibodies were tested for their ability to inhibit pKal from other species, besides human, where the amino acid sequence of pKal has been determined in order to identify amino acids that may account for the differences in inhibition.
# Antibodies that inhibit the activity of pKal either bind near the active site and preclude substrate interactions (competitive inhibitors) or that bind away from the active site and induce allosteric changes in the structure of the active site (noncompetitive inhibitors).
# rat pKal = target: T4, rat pKal (Rattus norvegicus, UniProt P14272); assay: Ki,app against rat pKal; assay type: biochemical; details: IgG, Table 14, read-out: < nM Ki, app against rodent pKal
# T4 construct: active plasma kallikrein (pkal) has the single polypeptide chain cleaved at a single position
# T4 sequence (P14272 391-638 limits assumed): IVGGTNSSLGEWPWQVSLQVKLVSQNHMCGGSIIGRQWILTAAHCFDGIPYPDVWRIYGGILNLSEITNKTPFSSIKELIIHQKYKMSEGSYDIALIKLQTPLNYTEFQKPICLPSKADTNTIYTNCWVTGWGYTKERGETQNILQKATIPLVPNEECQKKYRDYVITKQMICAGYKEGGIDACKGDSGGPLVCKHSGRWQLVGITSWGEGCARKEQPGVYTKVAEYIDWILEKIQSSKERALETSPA
# T4 sequence (P14272 20-390 partner limits assumed): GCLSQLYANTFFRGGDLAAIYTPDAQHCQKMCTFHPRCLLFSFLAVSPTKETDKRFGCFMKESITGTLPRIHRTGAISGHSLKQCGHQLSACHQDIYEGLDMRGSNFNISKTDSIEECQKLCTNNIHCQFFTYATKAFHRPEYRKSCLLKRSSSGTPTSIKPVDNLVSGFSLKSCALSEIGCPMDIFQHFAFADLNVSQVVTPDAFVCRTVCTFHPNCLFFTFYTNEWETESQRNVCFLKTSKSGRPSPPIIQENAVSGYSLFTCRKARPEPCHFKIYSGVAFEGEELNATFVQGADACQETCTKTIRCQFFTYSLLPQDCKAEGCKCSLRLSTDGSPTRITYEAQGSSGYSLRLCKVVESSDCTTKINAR
# Protocol: as §1
# prekallikrein = prekallikrein (Homo sapiens, UniProt P03952); assay: Surface plasmon resonance (SPR) assay for binding to prekallikrein; details: IgG; Table 14
# Chain of prekallikrein (P03952 20-638): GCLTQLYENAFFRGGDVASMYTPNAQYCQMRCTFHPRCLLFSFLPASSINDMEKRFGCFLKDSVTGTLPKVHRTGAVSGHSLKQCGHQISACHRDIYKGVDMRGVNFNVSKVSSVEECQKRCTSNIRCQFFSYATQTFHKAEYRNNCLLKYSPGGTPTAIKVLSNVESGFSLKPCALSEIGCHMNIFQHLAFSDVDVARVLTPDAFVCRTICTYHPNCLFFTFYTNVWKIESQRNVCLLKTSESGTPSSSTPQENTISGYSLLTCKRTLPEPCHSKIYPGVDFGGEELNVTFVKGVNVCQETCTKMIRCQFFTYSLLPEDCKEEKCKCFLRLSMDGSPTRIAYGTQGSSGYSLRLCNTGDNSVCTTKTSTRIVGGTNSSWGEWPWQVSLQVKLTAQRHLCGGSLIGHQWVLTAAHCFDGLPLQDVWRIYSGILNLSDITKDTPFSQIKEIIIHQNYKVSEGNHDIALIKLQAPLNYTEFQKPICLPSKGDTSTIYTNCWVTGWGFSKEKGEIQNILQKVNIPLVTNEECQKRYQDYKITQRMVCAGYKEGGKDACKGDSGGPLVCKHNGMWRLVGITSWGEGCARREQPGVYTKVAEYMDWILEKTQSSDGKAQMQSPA
# Protocol: Antibodies that bound prekallikrein may be rendered inaccessible towards active plasma kallikrein inhibition and could substantially increase the in vivo dose required for efficacy. […] Specifically, human IgGs (X81-B01, M162-A04 (R84-H05); M160-G12 (R84-D02); and M142-H08) were captured on a CM5 chip using an anti-human Fc surface and 100 nM of plasma kallikrein or 100 nM or 500 nM prekallikrein. The prekallikrein was treated with aprotinin-sepharose to remove active plasma kallikrein.
# [3] = test system: fXIa, plasmin, and trypsin; assay: Specificity with respect to other serine proteases; assay type: biochemical; details: IgG; Table 14
# bradykinin generation = assay: Inhibition of bradykinin generation; assay type: biochemical; details: IgG; Table 14
# pKal [4] = target: T5, pKal (Homo sapiens, UniProt P03952); assay: Inhibition of pKal in presence of prekallikrein; assay type: biochemical; details: IgG; Table 14
# T5 construct: two disulfide linked polypeptides; a heavy chain of approximately 52 kDa and a catalytic domain of approximately 34 kDa; host or cells: human plasma
# T5 sequence (P03952 391-638 limits assumed): as the sequence (P03952 391-638 limits assumed) above
# T5 sequence (P03952 20-390 partner limits assumed): as the sequence (P03952 20-390 partner limits assumed) above
# pKal [5] = target: T5, pKal; assay: Competition for binding with aprotinin; details: IgG; Table 14
# Text: The region of pKal bound by selected anti-pKal antibodies was investigated using several methods. First, competition assays were used to determine whether the antibodies competed for binding to pKal with known active site-directed inhibitors. Second, antibodies were grouped according to whether they were inhibitors or just binders to pKal. Third, epitopes were investigated using synthetic peptides and peptidic structures based on the sequence and 3-dimensional structure of pKal. These peptidic structures are called “CLIPS” (Chemically Linked Peptides on Scaffolds) and the testing was performed by a fee for service company called Pepscan.
# pKal [6] = target: T5, pKal; assay: BIACORE SPR competition with EPI-KAL2 for binding pKal; details: IgG captured on chip, pKal 100 nM, 1 μM EPI-KAL2
# Protocol: (§2) FIG. 7A depicts the EPI-KAL2 competition for X81-B01 binding pKal. X81-B01 (IgG) was captured on an anti-human Fc fragment specific surface of a CM5 BIACORE® chip. pKal (100 nM) was flowed over the surface in the presence (lower sensorgram in the figure) or absence of 1 μM EPI-KAL2 (upper sensorgram in the figure).
# as §2, with “7B” for “7A”, “X67-D03” for “X81-B01”, “Biacore” for “BIACORE®”
# Using a BIACORE® SPR assay antibodies of interest were tested for competion with a known active site inhibitor of pKal. EPI-KAL2 is potent (Ki,app=0.1 nM) active site inhibitor of pKal and a Kunitz domain inhibitor based on the first domain of tissue factor pathway inhibitor (Markland (1996) Iterative optimization of high-affinity protease inhibitors using phage display. 2. Plasma kallikrein and thrombin, Biochemistry 35(24):8058-67). Kunitz domains are known active site inhibitors of serine proteases, such as pKal.
# As shown in FIGS. 7A-7B, the antibodies X81-B01 and X67-D03 were competed for binding to pKal in the presence or EPI-KAL2.
# [7] = test system: pKal from different species; assay: Kallikrein activity in activated citrated plasma of different species; assay type: biochemical; details: all the species except for pig
# Text: (§3) All available sequence of pKal were obtained from public databases and aligned using ClustalW and regions were highlighted based on solvent accessibility, contact with an active site Kunitz inhibitor, and those peptides identified by CLIPS analysis (FIGS. 9A-9C). Citrated plasma from each of these species was obtained and activated using a commercially available prekallikrein activator (from Enzyme Research Laboratories) according to the instructions of the manufacturer. Kallikrein activity was then measured in each of the samples in the presence or absence of […]-B01.
# pig pKal = assay: Kallikrein activity in activated citrated plasma, pig; assay type: biochemical
# Chain of pig pKal (as listed by the source): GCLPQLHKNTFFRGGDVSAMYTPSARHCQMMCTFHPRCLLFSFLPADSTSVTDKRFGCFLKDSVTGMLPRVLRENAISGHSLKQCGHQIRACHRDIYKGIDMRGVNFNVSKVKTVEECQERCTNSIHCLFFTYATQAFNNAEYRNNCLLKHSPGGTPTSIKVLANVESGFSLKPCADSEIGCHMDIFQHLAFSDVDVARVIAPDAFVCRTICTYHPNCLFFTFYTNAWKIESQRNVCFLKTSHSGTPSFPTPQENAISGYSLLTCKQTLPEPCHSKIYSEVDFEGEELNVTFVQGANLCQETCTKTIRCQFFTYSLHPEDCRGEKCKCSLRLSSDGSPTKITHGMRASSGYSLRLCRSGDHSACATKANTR
# Chain of pig pKal (as listed by the source): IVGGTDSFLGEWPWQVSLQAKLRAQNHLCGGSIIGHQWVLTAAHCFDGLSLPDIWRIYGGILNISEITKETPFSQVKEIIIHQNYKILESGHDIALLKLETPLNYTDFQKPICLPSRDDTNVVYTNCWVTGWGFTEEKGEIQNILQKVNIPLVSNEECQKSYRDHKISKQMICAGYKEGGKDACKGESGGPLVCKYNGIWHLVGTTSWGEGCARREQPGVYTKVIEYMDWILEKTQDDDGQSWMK
# Text: as §3
# frog pKal = assay: Kallikrein activity in activated citrated plasma, frog; assay type: biochemical
# Text: as §3
# [8] = target: T1, human plasma kallikrein (human pKal); assay: Ki,app against human pKal by steady state enzyme kinetics (in vitro protease cleavage assay, Pro-Phe-Arg-aminomethylcoumarin substrate); assay type: biochemical; details: IgG
# [9] = Table 6, read-out: Human pKal (Ki, app nM)
molecule,measurement,setting,value
"M137-E12: antibody inhibitor of pKal; HV-CDR3 … (antibody, V domains shown) VL: QSVLIQPPSVSGIPGQRVTISCSGNNSNFGSNTVTWYQQLPGTAPKLLIYSDSRRPSGVPDRFSGSRSDTSASLAISGLQSEDEAEYHCAAWDDSLNGVFGGGTKLTVL VH: EVQLLESGGGLVQPGGSLRLSCAASGFTFSDYRMQWVRQAPGKGLEWVSVIVPSGGNTMYADSVKGRFTISRDNSKNTLYLQMNSLRAEDTAVYYCARGGPGSSIAARRAPTGYYGMDVWGQGTTVTVSSASTKGPSVFPLAPSSKS",Ki,[1]; [9],79 nM
same,Human pKal ELISA (T/B),[2],4.5
"M12-D05: antibody inhibitor of pKal; HV-CDR3 EGLLWFGENAFDI (antibody, V domains shown) VL: QSVLTQPPSVSVSPGQTATITCSGDQLGDKYVGWYQQKPGQSPILVIYQDTKRPSGIPERFSGSNSGNTATLTISGTHTVDEAHYYCQAWDTSTAGFGGGTKLTVL VH: EVQLLESGGGLVQPGGSLRLSCAASGFTFSWYTMVWVRQAPGKGLEWVSRIYPSGGWTKYADSVKGRFTISRDNSKNTLYLQMNSLRAEDTATYYCAREGLLWFGENAFDIWGQGTMVTVSSASTKGPSVFPLAPSSKS",Ki,[1]; [9],5.2 nM
same,Human pKal ELISA (T/B),[2],48.5
"M28-B11: antibody inhibitor of pKal; HV-CDR3 EGLLWFGENAFDI (antibody, V domains shown) VL: QSVLTQPPSVSVSPGQTATITCSGDQLGDKYVGWYQQKPGQSPILVIYQDTKRPSGIPERFSGSNSGNTATLTISGTHTVDEAHYYCQAWDTSTAGFGGGTKLTVL VH: EVQLLESGGGLVQPGGSLRLSCAASGFTFSWYTMVWVRQAPGKGLEWVSRIYPSGGWTKYADSVKGRFTISRDNSKNTLYLQMNSLRAEDTATYYCAREGLLWFGENAFDIWGQGTMVTVSSASTKGPSVFPLAPSSKS",Ki,[1]; [9],5.5 nM
same,Human pKal ELISA (T/B),[2],33.3
"X81-B01: codon optimized and germlined version of X63-G06 as a full length human IgG produced in CHO cells (antibody, chains of the INN, looked up, V domains shown, IgG, codon optimized and germlined version of X63-G06 as a full length human IgG produced in CHO cells) VH: EVQLLESGGGLVQPGGSLRLSCAASGFTFSHYIMMWVRQAPGKGLEWVSGIYSSGGITVYADSVKGRFTISRDNSKNTLYLQMNSLRAEDTAVYYCAYRRIGVPRRDEFDIWGQGTMVTVSS VL: DIQMTQSPSTLSASVGDRVTITCRASQSISSWLAWYQQKPGKAPKLLIYKASTLESGVPSRFSGSGSGTEFTLTISSLQPDDFATYYCQQYNTYWTFGQGTKVEIK",Ki,[1]; [9],0.2 nM
same,Ki,"[1]; Table 15, read-out: human Ki, app",0.1 nM
same,Ki,"mouse pKal; mouse, IgG, Table 14, read-out: < nM Ki, app against rodent pKal",0.011 nM
same,Ki,rat pKal,0.14 nM
same,Does not bind prekallikrein,prekallikrein,no
same,"Specific inhibitor with respect to fXIa, plasmin, and trypsin",[3],yes
same,Inhibits bradykinin generation,bradykinin generation,yes
same,Inhibits pKal in presence of prekallikrein,pKal [4],yes
same,Competition for binding with aprotinin,pKal [5],yes
same,competition for binding to pKal in the presence of EPI-KAL2,pKal [6],competed
same,inhibition of pKal from different species,[7],inhibited
same,inhibition of pig pKal,pig pKal,lack of inhibition
same,inhibition of frog pKal,frog pKal,inhibited
same,Ki,"[8]; Table 11, read-out: Ki, app",0.2 nM
same,Ki,"[8]; Table 14, read-out: < nM Ki, app against human pKal",0.2 nM
same,Ki,"[8]; pKal, germlined and sequence optimized for CHO cell expression, read-out: Ki,app",~0.2 nM
"M29-D09: antibody inhibitor of pKal; HV-CDR3 GSYDYIWGFYSDH (antibody, V domains shown) VL: QSALTQPPTVSVSPGQTARITCSGNKLGDKYVAWYQQKPGQSPMLVIYQDTKRPSAIPERFSGSNSANTATLSISGTQALDEADYYCQAWDSSIVIFGGGTRLTVL VH: EVQLLESGGGLVQPGGSLRLSCAASGFTFSWYTMVWVRQAPGKGLEWVSYIYPSGGATFYADSVKGRFTISRDNSKNTLYLQMNSLRAEDTAVYYCAMGSYDYIWGFYSDHWGQGTLVTVSSASTKGPSVFPLAPSSKS","mouse Ki, app (nM)",mouse pKal; Table 15,no
